Earlier results, collected in patent publication US20010007853A1, “METHOD FOR ADMINISTERING MONOMERIC INSULIN ANALOGS” (priority 1998, published 2001).

Details: calculated

Substance	Absorption values for proteins delivered through the lungs
glycosylated α1-antitrypsin	48 h
parathyroid hormone (fragment 1-34)	fifteen
